No end group written: not given here.

Consider ten molecules from patent publication US20180086804A1 (COMMISSARIAT A L ENERGIE ATOMIQUE ET AUX ENERGIES …, published 2018).

For test [1], the target named is T1, HLA-DR7 (HLA-DRB1*07:01) (human).
T1 construct: mature; purified from homozygous EBV-transformed lymphoblastoid cells with antibody L243
Put plainly: competition ELISA vs biotin-YKL.

Test [2] has as its target T2, HLA-DR3 (HLA-DRB1*03:01) (human).
T2 construct: mature; purified from homozygous EBV-transformed lymphoblastoid cells with antibody L243
Kind of test: competition ELISA vs biotin-MT 2-16. (In an ELISA, binding on a coated surface is turned into a signal by an enzyme label.)

For test [3], the target named is T3, HLA-DR15 (HLA-DRB1*15:01) (human).
T3 construct: mature; purified from homozygous EBV-transformed lymphoblastoid cells with antibody L243
Kind of test: competition ELISA vs biotin-A3 152-166.

Test [4] has as its target T4, HLA-DR1 (HLA-DRB1*01:01) (human).
T4 construct: mature; class II HLA molecule purified from homozygous EBV-transformed lymphoblastoid cells with antibody L243
Put plainly: competition ELISA vs biotin-HA 306-318.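 Note: HLA and competitor incubated 24 to 72 h, maximal signal taken from wells lacking competitor, background from wells lacking HLA molecule.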

In test [5] the target is T5, HLA-DRB5 (HLA-DRB5*01:01) (human).
T5 construct: mature; purified from homozygous EBV-transformed lymphoblastoid cells with antibody L243
Put plainly: competition ELISA vs biotin-HA 306-318.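 Note: HLA and competitor incubated 24 to 72 h, maximal signal taken from wells lacking competitor, background from wells lacking HLA molecule.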

The target of test [6] is T6, HLA-DR4 (HLA-DRB1*04:01) (human).
T6 construct: mature; purified from homozygous EBV-transformed lymphoblastoid cells with antibody L243
Kind of test: competition ELISA vs biotin-HA 306-318.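 Note: HLA and competitor incubated 24 to 72 h, maximal signal taken from wells lacking competitor, background from wells lacking HLA molecule.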

Test [7] has as its target T7, HLA-DR11 (HLA-DRB1*11:01) (human).
T7 construct: mature; purified from homozygous EBV-transformed lymphoblastoid cells with antibody L243
Kind of test: competition ELISA vs biotin-HA 306-318.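 Note: HLA and competitor incubated 24 to 72 h, maximal signal taken from wells lacking competitor, background from wells lacking HLA molecule.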

For test [8], the target named is T8, HLA-DRB3 (HLA-DRB3*01:01) (human).
T8 construct: mature; purified from homozygous EBV-transformed lymphoblastoid cells with antibody L243
Kind of test: competition ELISA vs biotin-LOL 191-210.

For test [9], the target named is T9, HLA-DRB4 (HLA-DRB4*01:01) (human).
T9 construct: mature; purified from homozygous EBV-transformed lymphoblastoid cells with antibody L243
Put plainly: competition ELISA vs biotin-E2/E168.

The target in test [10] is T10, HLA-DR13 (HLA-DRB1*13:01) (human).
T10 construct: mature; purified from homozygous EBV-transformed lymphoblastoid cells with antibody L243
Kind of test: competition ELISA vs biotin-B1 21-36.

Test [11] has as its target T11, HLA-DP402 (HLA-DPB1*04:02) (human, UniProt P20036 29-222).
T11 construct: mature; purified from homozygous EBV-transformed lymphoblastoid cells with antibody B7/21
Put plainly: competition ELISA vs biotin-Oxy 271-287.

The target of test [12] is T12, HLA-DP401 (HLA-DPB1*04:01) (human, UniProt P20036 29-222).
T12 construct: mature; purified from homozygous EBV-transformed lymphoblastoid cells with antibody B7/21
Kind of test: competition ELISA vs biotin-Oxy 271-287.

In test [13] the target is T13, HLA-DR13 (HLA-DRB1*13:01) (human).
T13 chain 1: not shown
T13 chain 2: not shown
Put plainly: competition ELISA vs biotin-B1 21-36.

Take HQIRQMEMKILRALN-NH2 [CCNB1 280-294]: the relative affinity was determined as 462 in [1]; 0.2 in test [2]; 0.3 in test [3]; 1220 in [4]; 4 in test [5]; 0.4 in test [6]. In addition, the figures for the relative affinity in test [7] and in test [8] were 2000 and 53, respectively.

Turning to AKISTLPQLNSALVQ-NH2 [CCNB1 410-424], the relative affinity in test [9] is 966; in test [10], 94; in test [3], 12; in test [4], 89; in [6], 408; in [7], 1. For the same molecule, in [11], the relative affinity amounted to 1120.

For the molecule AKYLMELTMLDYDMV-NH2 [CCNB1 323-337], the relative affinity came to 8 in test [1]; 7 in test [9]; 2 in [2]; 2 in test [3]; 4 in test [4]; 2 in test [5]. Also, the relative affinity was found to be 0.2 in test [6]; 0.4 in test [7]; 41 in test [8]; 1 in test [12]; 6 in test [11].

On to ESLLPVMQHLAKNVV-NH2 [CCNB1 374-388], for which the relative affinity is 3 in test [1]; 424 in [9]; 764 in [2]; 6 in test [10]; 19 in test [3]; 837 in test [4]. The relative affinity in test [5] came to 91; in test [6] it was 91; in test [7] it was 0.3.

For the molecule EPILVDTASPSPMET-NH2 [CCNB1 118-132], the relative affinity in [2] was 0.4; in test [3], 400; in [4] it was 6360; in test [6], 0.3; in [8], 12.

With PQLNSALVQDLAKAV-NH2 [CCNB1 416-430], the relative affinity worked out at 47 in test [1]; 1800 in test [9]; 9 in test [2]; 71 in test [3]; 693 in test [4]; 548 in test [5]. Also, the relative affinity in test [6] worked out at 54; in test [7], 123; in [8], 3; in test [12], 59; in test [11] it was 74.

The IC50 is the concentration that gives 50% inhibition. Read a low IC50 as higher potency. Molecule TERVRLVTRHIYNREE (modifications not checked) [B1 21-36] had an IC50 in test [13] of 51 nM.

With NSALVQDLAKAVAKV-NH2 [CCNB1 419-433], the relative affinity was determined as 183 in test [1]; 1 in test [2]; 37 in [10]; 7 in test [3]; 155 in [4]; 333 in [6]. Moreover, the relative affinity in test [7] came out at 3; in [8] it was 7; in test [11] it was 148.

As to MEMKILRALNFGLGR-NH2 [CCNB1 285-299], the relative affinity is 0.1 in [1]; 18 in [9]; 51 in test [2]; 1 in test [10]; 0.03 in test [3]; 1 in test [4]. Further, the relative affinity in [5] came out at 2; in [6], 7; in [7] it was 4; in [12], 30; in test [11], 4.

With HTLAKYLMELTMLDY-NH2 [CCNB1 320-334], the relative affinity turned out to be 18 in [1]; 18 in [9]; 1 in test [2]; 10 in test [10]; 3 in test [3]; 16 in [4]. The relative affinity in [5] was 17; in test [6], 1; in [7] it was 2; in test [8], 24; in [12], 8; in [11], 3.
